Consider three molecules from PMC10641069, “Intra- and inter-molecular regulation by intrinsically-disordered regions governs PUF protein RNA binding” (Nature Communications, 2023).

The target in one assay is T1, FBF-2 RBD + CT (Caenorhabditis elegans, UniProt Q09312).
T1 construct: A cDNA fragment encoding C. elegans FBF-2 RBD + CT (residues 164-632) was cloned into the pSMT3 vector; His6-SUMO (N, cleaved yes); made in house; host or cells: E. coli BL21-CodonPlus (DE3)-RIL
T1 sequence (Q09312 whole entry, looked up): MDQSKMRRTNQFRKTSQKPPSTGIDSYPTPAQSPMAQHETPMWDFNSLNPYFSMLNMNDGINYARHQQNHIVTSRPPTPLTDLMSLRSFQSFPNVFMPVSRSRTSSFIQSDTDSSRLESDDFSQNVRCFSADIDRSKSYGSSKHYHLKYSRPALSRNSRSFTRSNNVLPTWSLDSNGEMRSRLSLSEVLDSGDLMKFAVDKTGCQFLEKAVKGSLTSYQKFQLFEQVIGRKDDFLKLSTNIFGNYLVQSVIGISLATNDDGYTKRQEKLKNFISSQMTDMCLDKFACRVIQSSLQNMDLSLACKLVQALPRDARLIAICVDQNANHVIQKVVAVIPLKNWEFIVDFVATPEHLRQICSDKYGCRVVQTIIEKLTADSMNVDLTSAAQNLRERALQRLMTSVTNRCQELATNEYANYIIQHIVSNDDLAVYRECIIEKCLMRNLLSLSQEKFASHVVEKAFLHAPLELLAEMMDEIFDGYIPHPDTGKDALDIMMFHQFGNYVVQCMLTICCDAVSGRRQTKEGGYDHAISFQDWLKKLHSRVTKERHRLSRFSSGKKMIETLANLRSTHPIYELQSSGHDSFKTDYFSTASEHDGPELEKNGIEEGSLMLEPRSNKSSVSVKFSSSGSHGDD
Briefly: ITC, peptide into FBF-2 RBD + CT, no RNA. Particulars: mean of two independent replicates; 20 °C, 20 mM HEPES pH 7.4, 150 mM NaCl, 0.5 mM TCEP; one-site model. Format: binding, C. elegans. A general note: In ITC the heat of successive injections is recorded.

Assay [1] addresses T2, FBF-2 RBD + CT L610A (Caenorhabditis elegans, UniProt Q09312, L610A).
T2 construct: A cDNA fragment encoding C. elegans FBF-2 RBD + CT (residues 164-632) was cloned into the pSMT3 vector; His6-SUMO (N, cleaved yes); made in house; host or cells: E. coli BL21-CodonPlus (DE3)-RIL (as for wild type)
Type of assay: binding, C. elegans. The following applies: pH 7.4.

Another assay deals with gld-1 FBEa RNA. The following applies: LST-1 peptide with FBF-2 RBD (no CT); cited from earlier work. The text has this:
LST-1 is expressed in GSCs in response to signaling from the stem cell niche. The LST-1 protein is largely unstructured (Fig. 1b), including an N-terminal region that is sufficient for self-renewal of GSCs[22]. This LST-1 IDR region harbors two PUF Interacting Motifs (PIMs), LST-1 A and LST-1 B, that interact with FBF-2, each with a KxxL sequence[17],[22]. Crystal structures of FBF-2 bound to LST-1 A or B identify a seven-residue core region, including the KxxL sequence, that binds to FBF-2 with similar peptide backbone structure[17],[18]. The two LST-1 PIMs are biologically redundant for ... || If the FBF-2 CT reduces RNA-binding affinity (Fig. 3b) and competes with LST-1 for binding (Fig. 2c, d), why then does FBF-2 depend on LST-1 to repress RNAs in nematodes? To address this question, we explored RNA-binding affinities of FBF-2 RBD + CT in the presence of either LST-1 A or LST-1 B (Fig. 6; Supplementary Table 3). In contrast to results with FBF-2 RBD alone[17],[18], both LST-1 A and LST-1 B increased the RNA-binding affinity of FBF-2 RBD + CT.

Assay [2] deals with T3, FBF-2 RBD (Caenorhabditis elegans, UniProt Q09312).
T3 construct: The FBF-2 RBD protein (residue 164-575) was purified as described previously; His6-SUMO (N, cleaved yes); made in house; host or cells: E. coli BL21-CodonPlus (DE3)-RIL (host inferred: b50 says the procedure was otherwise the same as for RBD + CT)
T3 sequence (Q09312 whole entry, looked up): T1 sequence (Q09312 whole entry, looked up)
Particulars: reported previously, cited from earlier work. The text has this: Given that the core residues of three distinct PIMs—FBF-2 CT, LST-1 A, and LST-1 B—all bind to the same site of FBF-2, we hypothesized that the intramolecular FBF-2 CT binding could compete with LST-1 A and LST-1 B binding. To assess that idea, we investigated how the CT affects the protein interaction affinities of the FBF-2 RBD to LST-1 A and LST-1 B, using isothermal titration calorimetry (ITC, Supplementary Table 3). No RNA was included in these experiments. We first measured the binding affinity of an isolated CT peptide and the FBF-2 RBD (no CT), by titrating the peptide, FBF-2^601–632, ... || Fig. 2 The FBF-2 CT competes with partner proteins for binding to the RBD. Representative isothermal titration calorimetry thermograms (top, differential power [DP] vs time) and corresponding titration curve-fitting graphs (bottom) are shown for interaction between a FBF-2 RBD and FBF-2 CT, c FBF-2 RBD + CT and LST-1 A, d FBF-2 RBD + CT and LST-1 B, e FBF-2 RBD and FBF-2 CT L610A, f FBF-2 RBD + CT L610A and LST-1 A, and g FBF-2 RBD + CT L610A and LST-1 B. Data points on the curve-fitting graphs are shown as open circles. b Previously reported mean Kd from two independent replicates with simila ... || We next compared the protein interaction affinities of LST-1 A or LST-1 B with either FBF-2 RBD + CT or RBD alone (Fig. 2c–g, Supplementary Table 3). For these experiments, we titrated the LST-1 peptide into an ITC cell containing either RBD + CT or RBD.

In assay [3] the target is T3, FBF-2 RBD. Format: binding, C. elegans. Particulars: mean of two independent replicates, 20 °C, 20 mM HEPES pH 7.4, 150 mM NaCl, 0.5 mM TCEP, one-site model. As to the method:
To assess that idea, we investigated how the CT affects the protein interaction affinities of the FBF-2 RBD to LST-1 A and LST-1 B, using isothermal titration calorimetry (ITC, Supplementary Table 3). No RNA was included in these experiments.
Experiments were performed at 20 °C using a MicroCal PEAQ-ITC Automated (Malvern Instruments) with a 200-μL standard cell and a 40-μL titration syringe. FBF-2 and LST-1 variants were prepared in a buffer of 20 mM HEPES pH 7.4, 150 mM NaCl, and 0.5 mM TCEP by gel filtration. LST-1 (100–400 µM) was titrated from the syringe into the cell containing FBF-2 (10–30 µM) in 2 µl aliquots. Experiments were performed in duplicate due to the limitation of the amount of protein needed. Data were analyzed using the MicroCal PEAQ-ITC Analysis Software (version 1.40) provided by the manufacturer with the one-site model (Table S3).
Supplementary Table 3. Protein interaction affinities, stoichiometries, and thermodynamic parameters between FBF-2 CT/LST-1 variants and FBF-2 measured by ITC. Two technical replicates (n=2 independent experiments) were performed for each analysis with similar results, and the values are shown for each replicate. Source data are provided as a Source Data file. […]
RBD+CT LST-1 A none Not detected
RBD FBF-2 CT none Not detected
1 Reported previously 18.

Assay [4] addresses T4, FBF-2 RBD (FBF-2 residues 164-575) (C. elegans, UniProt Q09312 164-575).
T4 chain: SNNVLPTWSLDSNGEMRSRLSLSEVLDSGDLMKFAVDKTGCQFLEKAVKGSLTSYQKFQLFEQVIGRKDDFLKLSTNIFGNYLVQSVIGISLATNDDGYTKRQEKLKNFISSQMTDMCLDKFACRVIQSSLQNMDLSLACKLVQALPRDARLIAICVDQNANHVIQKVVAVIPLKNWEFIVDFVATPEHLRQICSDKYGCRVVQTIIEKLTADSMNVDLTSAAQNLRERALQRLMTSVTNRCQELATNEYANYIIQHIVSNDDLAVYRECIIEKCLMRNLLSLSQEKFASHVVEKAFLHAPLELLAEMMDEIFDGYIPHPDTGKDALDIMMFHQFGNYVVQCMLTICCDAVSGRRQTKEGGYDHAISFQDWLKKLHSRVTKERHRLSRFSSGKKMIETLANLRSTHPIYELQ
The assay can be described thus: ITC.

The target in assay [5] is T5, FBF-2 RBD + CT L610A (C. elegans, UniProt Q09312 164-632, L610A).
T5 construct: source: E. coli, expressed and purified like wild type proteins; not shown: His6-SUMO, N-terminal, cleaved
T5 sequence (looked up): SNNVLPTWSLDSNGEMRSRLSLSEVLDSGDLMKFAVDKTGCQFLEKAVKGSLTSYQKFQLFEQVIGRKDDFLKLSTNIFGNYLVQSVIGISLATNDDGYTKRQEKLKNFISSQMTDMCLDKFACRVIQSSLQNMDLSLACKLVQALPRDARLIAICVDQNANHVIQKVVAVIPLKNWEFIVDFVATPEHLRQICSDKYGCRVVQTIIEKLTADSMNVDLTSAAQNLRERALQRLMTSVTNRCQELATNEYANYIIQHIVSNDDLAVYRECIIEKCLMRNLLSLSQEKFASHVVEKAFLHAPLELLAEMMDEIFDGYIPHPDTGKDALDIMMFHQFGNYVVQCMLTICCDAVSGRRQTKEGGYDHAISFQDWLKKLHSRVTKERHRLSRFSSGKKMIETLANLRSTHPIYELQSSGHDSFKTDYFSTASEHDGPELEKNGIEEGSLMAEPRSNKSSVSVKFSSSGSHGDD
Briefly: ITC; peptide (100–400 µM) titrated from the syringe into the cell containing FBF-2 (10–30 µM); 20 °C; 20 mM HEPES pH 7.4, 150 mM NaCl, 0.5 mM TCEP; no RNA; one-site model; mean of two replicates. Particulars: both partners purified.

In assay [6] the target is T6, FBF-2 RBD + CT L610A (C. elegans, UniProt Q09312 164-632, L610A).
T6 sequence: T5 sequence (looked up)
The assay can be described thus: ITC.

For assay [7], the target named is T4, FBF-2 RBD (FBF-2 residues 164-575). The assay can be described thus: ITC.
Assay [8] deals with T7, FBF-2 RBD + CT (FBF-2 residues 164-632) (C. elegans, UniProt Q09312 164-632).
T7 sequence (looked up): T5 sequence (looked up) with A447L
The assay can be described thus: cell-based or functional assay.

Residue numbers refer to the chain shown, from its start. “And” between values parts separate entries of the source, which are not always exact repeats. Identical values can stand only once. “Also recorded” adds a separate entry of the source. Like-named read-outs stand apart in the source and are kept apart here.

By Kd is commonly meant the equilibrium constant for the complex coming apart. As to “LST-1 A: LST-1 A peptide, residues 19–50, expressed in E. coli (STIAYSKSQHEAPKQLLQLRSEIKPLIPLNQP; left off: His6-SUMO, N-terminal, cleaved)”, in the assay with FBF-2 RBD + CT, the Kd entry is listed as “No binding; also recorded: too weak to be detected by ITC; also recorded: Not detected”. Besides, the “∆G” value in the assay with FBF-2 RBD + CT L610A [1] is -7.62 kcal/mol; with FBF-2 RBD + CT L610A [1] (replicate 1, 20 °C), -7.5 kcal/mol; with FBF-2 RBD [2] (replicate 1), -7.62 kcal/mol; with FBF-2 RBD [2] (replicate 2) it was -7.65 kcal/mol. Further, the “-T∆S” value in the assay with FBF-2 RBD + CT L610A [1] (replicate 1, 20 °C) is 4.45 kcal/mol; with FBF-2 RBD + CT L610A [1] (replicate 2, 20 °C), 4.73 kcal/mol; with FBF-2 RBD [2] (replicate 1), 6.07 kcal/mol; with FBF-2 RBD [2] (replicate 2), 6 kcal/mol. Moreover, the “∆H” value with FBF-2 RBD + CT L610A [1] (replicate 1, 20 °C) is -12 kcal/mol; with FBF-2 RBD + CT L610A [1] (replicate 2, 20 °C) it was -12.4 kcal/mol; with FBF-2 RBD [2] (replicate 1), -13.7 kcal/mol; in the assay with FBF-2 RBD [2] (replicate 2), -13.6 kcal/mol. Also, the “effect on RNA-binding affinity of FBF-2 RBD” value with gld-1 FBEa RNA is listed as “no effect on RNA-binding affinity”.

For the molecule “FBF-2 CT L610A: FBF-2 CT (601-632) with L610A (NGIEEGSLMAEPRSNKSSVSVKFSSSGSHGDD)”, the Kd entry is on record as “No binding; also recorded: Not detected” with FBF-2 RBD [3] and “No binding was detected” in the assay with FBF-2 RBD [3] (listed as CT peptide with L610A).

B1: LST-1 A peptide (LST-1 residues 19-50) (peptide, UniProt P91820 19-50, looked up)
chain: STIAYSKSQHEAPKQLLQLRSEIKPLIPLNQP
notes: The tag was cleaved with Ulp1 protease; also called LST-1^19–50; source: E. coli, purified (Ni-NTA, HiTrap Q flow-through, Superdex 75); not shown: His6-SUMO, N-terminal, cleaved
For the molecule B1, the dissociation constant Kd in [4] was 2100 nM; in the assay with FBF-2 RBD + CT L610A [5], 2400 nM; in the assay with FBF-2 RBD + CT L610A [6], 2100 nM and 2600 nM; in assay [7], 2130 nM and 2020 nM. In assay [8], the “RNA-binding affinity of FBF-2 RBD + CT for gld-1 FBEa RNA by EMSA in the presence of 150 µM LST-1 A” value was 3 fold.
